Assay results as given in the supplement of paper PMC12764529.
± gives the half width of the 95% confidence interval.

Key:
[1] = folding stability dG unfold from trypsin proteolysis; higher = more stable
In short: (§1)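 Only designs with AlphaFold2 dimer inter-PAE above 15 were retained; each was a mini-protein under 80 residues with no cysteine, in a PA-tagged cDNA display construct. After digestion with trypsin and chymotrypsin and sequencing, K50 was inferred by Bayesian fitting of counts, and unfolding free energy was derived per protease or combined against a sequence-predicted unfolded-state K50 and a shared folded-state K50.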

[2] = folding stability dG unfold from chymotrypsin proteolysis; higher = more stable
In short: as §1

[3] = folding stability dG unfold (combined trypsin and chymotrypsin); higher = more stable
In short: as §1

| Sequence | folding stability dG unfold [1] [kcal/mol] | folding stability dG unfold [2] [kcal/mol] | folding stability dG unfold [3] [kcal/mol] |
| --- | --- | --- | --- |
| SAGGSAGGPEVKILKVDPENNTITLALPVDNEILLLEIKIEPDPENPNSFKATIELKVFPYNEASAGGSAGG [r6_371_TrMRF] | 2.33 ± 0.28 | 3.21 ± 0.096 | 2.8 ± 0.26 |
| SAGGSAGGPEYQMIPVKNVEIDEFDPNDGNVTIKFKGNGQEIKLPPDGIQSIEISPDQGWIYIRSAGGSAGG [r6_315_TrROS] | -0.318 ± 0.093 | -0.365 ± 0.22 | -0.273 ± 0.12 |
| SAGGSAGGPKEYYRVTVYVRNKDGEWEKVAEIEVPGMTEEELKELLAKLGLPPGAEVEIKIEKVSAGGSAGG [r6_88_TrROS_Hall] | 5.02 ± 0.49 | 4.92 ± 0.15 | 5.01 ± 0.21 |
| SAGGSAGGPLENDIPIPLTVPLPGPGTAELFLLPSTGEVLALVEGKPYLVSLEDLKDGVFRLGLSAGGSAGG [r6_939_TrMRF] | -0.577 ± 0.36 | 0.989 ± 0.17 | 0.576 ± 0.12 |
| SAGGSAGGPLRIEIEIKIEIFPFPDGWYLIRMTIKIKVYNPGEDGQPIAEYEITFYFIIPPGDFSAGGSAGG [r6_60_TrROS] | 4.25 ± 0.17 | 6.06 ± 0.15 | > 6 |
| SAGGSAGGPLVVILPDPETGLFHVRVRYPDGTVESLGPFPSLEEALEALPSEGLGRVEVRPYLKSAGGSAGG [r6_307_TrMRF] | 1.05 ± 0.014 | 1.44 ± 0.038 | 1.28 ± 0.049 |
| SAGGSAGGPNMYMFKLEIKWYDPGKGKPVATRPITVMVPEDDLPEILKNLPPGFEIKNITIFPMSAGGSAGG [r6_777_TrROS] | 2.16 ± 0.058 | 2.5 ± 0.071 | 2.45 ± 0.11 |
| SAGGSAGGPNYFVRITIKMRKPNGKPIGEFPIWIPFKSKEQARSLADELAQMPGIEKVDIELVPSAGGSAGG [r6_475_TrROS] | 2.22 ± 0.025 | 2.68 ± 0.031 | 2.53 ± 0.051 |
| SAGGSAGGPPGEPPDVKVIPIEIEHERYNPDDGEMEVETIPFPIVIAPDGTIYHGDRPIPPDDISAGGSAGG [r6_515_TrROS] | 2.02 ± 0.24 | 1.41 ± 0.09 | 1.8 ± 0.41 |
| SAGGSAGGPPVEERELTLPDGTRLTITRYPDSYTVEVTLPDGTVETRTYPDVTPEEAVAAVKAASAGGSAGG [r6_459_JUSTAS] | 1.68 ± 0.043 | 1.927 ± 0.013 | 1.85 ± 0.051 |
| SAGGSAGGPVKIHVHVNPEEGYYMIEVRSGNEPRHIMIPMDKEEIKSFIENLPPGIEVEIHPMPSAGGSAGG [r6_401_TrROS] | 1.37 ± 0.067 | 1.19 ± 0.072 | 1.4 ± 0.14 |
| SAGGSAGGQEEEAEALAKEVEAPAREALPGTEVTVTVTVTRREDGSLEVDVTIEGDFALPAALLSAGGSAGG [r6_999_JUSTAS] | 0.813 ± 0.065 | 0.636 ± 0.067 | 0.783 ± 0.24 |
| SAGGSAGGRIEVDPEGATIKYEHNPNMMQIEIKYPGKKVQIMIPPDFMKQNPDMPIKDLVEWILSAGGSAGG [r6_369_TrROS] | 1.09 ± 0.081 | 0.94 ± 0.089 | 1.11 ± 0.23 |
| SAGGSAGGRKTRRLVLEVDDIPEGVSAEELTEEELRRLGLPPDARIRVVRRPDGRLLVVIEVRESAGGSAGG [r6_551_TrROS_Hall] | 1.64 ± 0.022 | 2.71 ± 0.0092 | 2.42 ± 0.051 |
| SAGGSAGGSAAAPPPPTITITVEVRTLPDGTVEITATATLPDGTTLTVTLRINADGSLTATSAGGSAGGSAG [r3_259_TrROS_Hall] | 1.91 ± 0.13 | 3.4 ± 0.17 | 3.17 ± 0.23 |
| SAGGSAGGSAAISIDLPPNSVLNISIPVTEPGGKPYTVKISVYSTPLPSNSYELNIKVTIVSAGGSAGGSAG [r3_347_JUSTAS] | 3.56 ± 0.15 | 4.66 ± 0.093 | 4.43 ± 0.12 |
| SAGGSAGGSAAITIPVPPGETVTIKIEIEMTVPPNQRNPDGQRMKPGQKVRMEVTFTFRVDGSAGGSAGGSA [r18_450_TrROS] | 3 ± 0.11 | 4.63 ± 0.058 | 4.24 ± 0.13 |
| SAGGSAGGSAAKIVDINISVRRSPENGYWKIPITIRIKGPNGKEQEIDLTMVFKIPPGQPLFSAGGSAGGSA [r18_95_TrROS] | 2.83 ± 0.072 | 2.88 ± 0.043 | 2.9 ± 0.15 |

| Sequence | folding stability dG unfold [1] [kcal/mol] | folding stability dG unfold [2] [kcal/mol] | folding stability dG unfold [3] [kcal/mol] |
| --- | --- | --- | --- |
| SAGGSAGGSAAKPIPFTITSVSVPTAPDGKKYAVVEISFPGSGAKAWAVYDIDDPYIKEAGSAGGSAGGSAG [r3_57_TrMRF] | 0.804 ± 0.095 | 1.71 ± 0.15 | 1.37 ± 0.1 |
| SAGGSAGGSAAPLEARLVSVSRDPAGNRLHAVYVVRDPSTGEQYLVTFSADPTSISVRVERVSAGGSAGGSA [r18_444_TrMRF] | 2.69 ± 0.12 | 4.48 ± 0.089 | 3.96 ± 0.071 |
| SAGGSAGGSAAPTNPVEITLKRPDGTPVKATITFYPDGVKVTVEDGDTTTTSWLSPEEITLSAGGSAGGSAG [r3_373_JUSTAS] | 2.09 ± 0.037 | 1.722 ± 0.015 | 1.89 ± 0.03 |
| SAGGSAGGSAAPVPPDRTLTVYRDPNTDKYTIRTPDGSVTVSPITPEELRAAGAPVVYLGPESAGGSAGGSA [r18_125_JUSTAS] | -1 ± 0.25 | -0.0867 ± 0.12 | -0.297 ± 0.073 |
| SAGGSAGGSAAPVVREIEIDLPYPDGSPLTVEKVTEEPAPGTVHYEIKLPDGTVITRTVPTFSAGGSAGGSA [r18_370_JUSTAS] | -0.92 ± 0.3 | -1.03 ± 0.39 | -0.797 ± 0.24 |
| SAGGSAGGSADAVVVEVTLPGGGKARAVFFPDGSVVIVVDFPDGRRAVIFLENNEIVVLPVDSAGGSAGGSA [r18_285_TrMRF] | 3.73 ± 0.2 | 3.15 ± 0.19 | 3.63 ± 0.12 |
| SAGGSAGGSADDEIVAEFTFTVPGTGVKKVKVKVFKDPNSDEYWVRVEGKWLPVSNPEEALESAGGSAGGSA [r18_67_TrMRF] | 1.62 ± 0.11 | 2.4 ± 0.066 | 2.1 ± 0.14 |
| SAGGSAGGSADELLDKLLNHKWLRDAMEKAPPGMEEIDIELPDGGKIRIRRTPNGGFRLEPSAGGSAGGSAG [r3_124_TrROS] | 1.904 ± 0.019 | 1.48 ± 0.081 | 1.76 ± 0.087 |
| SAGGSAGGSADIKVEVEYDKSNGYMWVKIKLPGKDIPIWIPPNDSPEQMEEKAIDFAKYLLKSAGGSAGGSA [r18_266_TrROS] | 0.592 ± 0.12 | 0.765 ± 0.21 | 0.791 ± 0.27 |
| SAGGSAGGSADNKPFKVEIDVEHHPPNGYYRVTIEWPDGREIVVWMPGNPDEAKDQAKELISAGGSAGGSAG [r3_143_TrROS] | 1.28 ± 0.04 | 1.26 ± 0.22 | 1.31 ± 0.16 |
| SAGGSAGGSADPPRSVLKEERSPDGTTTYKLLEYPGERVLVVTRTPPDGTEEVVLIPEEELSAGGSAGGSAG [r3_167_JUSTAS] | 0.322 ± 0.071 | 0.0217 ± 0.25 | 0.231 ± 0.086 |
| SAGGSAGGSADYFMVVIKYYPPNGEKQEHPFSVPFKDEEDLKDEIKEQAPPGREVEIEIFPMSAGGSAGGSA [r18_60_TrROS] | 0.956 ± 0.083 | -0.0385 ± 0.17 | 0.647 ± 0.12 |
| SAGGSAGGSAEDVVLKVKIEIPSSDGTLLEIDEAIYNPKPGTLHFKIRSPDGSEFEIEIPLDSAGGSAGGSA [r18_370_TrMRF] | 0.725 ± 0.033 | 1.44 ± 0.13 | 1.12 ± 0.082 |
| SAGGSAGGSAEELAKKLAEELRKEHNLEVTVEEVELKEEEIPGLKFKPGQKLLVITVKKKDSAGGSAGGSAG [r3_229_TrROS_Hall] | 0.901 ± 0.033 | 0.227 ± 0.069 | 0.604 ± 0.13 |
| SAGGSAGGSAEELLKAFPNAEIVKYDPETKKFIIKLKDGSYLVVNLETGEIKLVSKEELEKASAGGSAGGSA [r18_381_TrROS_Hall] | 2.66 ± 0.11 | 3.94 ± 0.066 | 3.67 ± 0.076 |
| SAGGSAGGSAEEPEFEIVSVEYDPETNVLTVVVRDKKTGRLYVFRFYPDGTVEVREVSLEDLSAGGSAGGSA [r18_521_TrROS_Hall] | 3.37 ± 0.064 | 5.03 ± 0.057 | 4.74 ± 0.076 |
| SAGGSAGGSAEKPPPPVVTLRVRVVVEVDGKLYVATAEVRLVDGKLEIRVRIEEVPPGAPVSAGGSAGGSAG [r3_49_TrROS_Hall] | 3.7 ± 0.12 | 4.59 ± 0.22 | 4.34 ± 0.17 |
| SAGGSAGGSAEPGPEELAKALAGELEKRFGKPVKEVKAYEIPGEKRYIVTAKLDDGEFTIIASAGGSAGGSA [r18_145_TrMRF] | -0.267 ± 0.28 | -0.235 ± 0.28 | -0.121 ± 0.38 |
